The values that follow come from article PMC8837141, “Structural and Functional Differences between Homologous Bacterial Ribonucleases” (International Journal of Molecular Sciences, 2022).

Data set [1] has as its target balifase (Bacillus licheniformis). As to the kind of experiment: SEC; size-exclusion chromatography of the purified RNases; molecular weights from the elution profile of marker proteins; column and buffer not told.
Data set [2] concerns the target balnase (Bacillus altitudinis). The data set is described as above.
Data set [3] concerns the molecule itself. Described as above.
Data set [4] deals with the molecule itself. As to the kind of experiment: dynamic light scattering; Zetasizer Nano ZS; RNase diluted with ultrapure water, filtered, sonicated for 2 min; particle size by volume distribution; ten runs of 30 s.

For balifase (enzyme), in data set [1], the stoichiometry N is 2. Consider balnase (enzyme), for which the stoichiometry N in data set [2] was determined as 2.

B1: barnase (enzyme, Bacillus amyloliquefaciens, UniProt P00648 48-157, looked up)
chain: AQVINTFDGVADYLQTYHKLPDNYITKSEAQALGWVASKGNLADVAPGKSIGGDIFSNREGKLPGKSGRTWREADINYTSGFRNSDRILYSSDWLIYKTTDHYQTFTKIR
notes: barnase, guanyl-preferring ribonuclease of Bacillus amyloliquefaciens; also called RNase from B. amyloliquefaciens; source: homogeneous protein preparation, obtained using previously described three-step procedure [19,30]
For the molecule B1, in data set [3], the “stoichiometry N” value worked out at 2.

B2: binase (enzyme, Bacillus pumilus, UniProt P00649 54-162, looked up)
chain: AVINTFDGVADYLIRYKRLPDNYITKSQASALGWVASKGNLAEVAPGKSIGGDVFSNREGRLPSASGRTWREADINYVSGFRNADRLVYSSDWLIYKTTDHYATFTRIR
notes: binase, guanyl-preferring ribonuclease of Bacillus pumilus (~12 kDa), N1/T1/U2 family (IPR000026); also called RNase from B. pumilus; source: homogeneous protein preparation, obtained using previously described three-step procedure [19,30]
On to B2, for which the “stoichiometry N” value in data set [4] worked out at 2.
